Positions count from the first letter of the chain named.
T1: human STEAP2 (six-transmembrane epithelial antigen of prostate 2) (human, UniProt Q8NFT2 1-490)
T1 sequence: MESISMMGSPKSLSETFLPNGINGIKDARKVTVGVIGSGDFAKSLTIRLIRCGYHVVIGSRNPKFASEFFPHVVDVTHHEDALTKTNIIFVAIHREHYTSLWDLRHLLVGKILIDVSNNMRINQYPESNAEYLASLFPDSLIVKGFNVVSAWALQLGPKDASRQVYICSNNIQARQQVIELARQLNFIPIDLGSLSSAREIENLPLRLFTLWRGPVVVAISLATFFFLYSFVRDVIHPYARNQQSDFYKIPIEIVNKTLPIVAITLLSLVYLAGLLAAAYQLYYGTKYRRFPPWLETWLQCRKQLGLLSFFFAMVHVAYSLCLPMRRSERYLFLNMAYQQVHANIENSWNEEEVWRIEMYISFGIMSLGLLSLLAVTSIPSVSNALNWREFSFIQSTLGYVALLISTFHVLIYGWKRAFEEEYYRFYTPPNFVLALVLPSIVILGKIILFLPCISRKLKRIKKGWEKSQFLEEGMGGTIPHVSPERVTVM

B1: LO14 SG3932 DAR8 ADC (antibody, human IgG1, kappa, V domains shown)
VH: QVQLQQSGPGLVKPSQTLSLTCAISGDSVSRNSAVWNWIRQSPSRGLEWLGRTYYRSKWYNDYAPSVKSRITINPDTSKNQFSLQLNSVTPEDTAVYYCARGLRQNQFYYYMDVWGKGTTVTVSS
VL: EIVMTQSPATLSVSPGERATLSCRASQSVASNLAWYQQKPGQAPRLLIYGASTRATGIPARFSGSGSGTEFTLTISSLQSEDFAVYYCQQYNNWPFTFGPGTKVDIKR
modifications: SG3932 on native cysteines (DAR 8 per antibody); SG3932 (TOP1i, cleavable mal-PEG8-val-ala linker) on native cysteines through a thiosuccinimide linkage; DAR 8 per antibody
B2: 40A3-LO14 (antibody, human IgG1, kappa, V domains shown)
VH: B1 VH
VL: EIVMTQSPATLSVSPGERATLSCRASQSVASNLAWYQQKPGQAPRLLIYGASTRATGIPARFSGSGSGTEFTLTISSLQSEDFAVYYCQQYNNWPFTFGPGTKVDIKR
notes: also called 40A3GL-LO14; LO14 mAb
B3: LO11 SG3932 DAR8 ADC (antibody, human IgG1, kappa, V domains shown)
VH: B1 VH with R104L
VL: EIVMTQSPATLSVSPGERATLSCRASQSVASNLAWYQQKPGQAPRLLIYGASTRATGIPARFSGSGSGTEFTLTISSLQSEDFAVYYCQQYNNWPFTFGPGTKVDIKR
modifications: SG3932 on native cysteines (DAR 8 per antibody); SG3932 (TOP1i, cleavable mal-PEG8-val-ala linker) on native cysteines through a thiosuccinimide linkage; DAR 8 per antibody
B4: 40A3-LO12 (antibody, V domains shown)
VH: B1 VH with P65V
VL: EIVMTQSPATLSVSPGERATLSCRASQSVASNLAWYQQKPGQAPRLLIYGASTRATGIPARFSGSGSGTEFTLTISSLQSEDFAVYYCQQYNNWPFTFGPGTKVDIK
notes: Human IgG1 kappa
B5: 40A3-LO7 (antibody, V domains shown)
VH: B1 VH with P65V, R104L
VL: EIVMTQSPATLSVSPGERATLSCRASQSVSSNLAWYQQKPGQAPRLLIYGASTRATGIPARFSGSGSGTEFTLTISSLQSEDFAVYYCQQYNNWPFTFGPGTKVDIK
notes: Germlined, de-risked 40A3; Human IgG1 kappa; also called 40A3GL-LO7; STEAP2-3 VH / STEAP2-3 VL
B6: 40A3-LO11 (antibody, human IgG1, kappa, V domains shown)
VH: B1 VH with R104L
VL: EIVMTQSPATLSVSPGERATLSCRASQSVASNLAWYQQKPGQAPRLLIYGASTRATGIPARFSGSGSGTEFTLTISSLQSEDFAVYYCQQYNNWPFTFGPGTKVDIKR
notes: also called 40A3GL-LO11; LO11 mAb

What was measured:
[1] = biological target: T1, human STEAP2 (six-transmembrane …); assay: cell-based or functional assay
[2] = biological target: T1, human STEAP2 (six-transmembrane …); assay: cell-based or functional assay; remark: listed apart in the source
[3] = biological target: T1, human STEAP2 (six-transmembrane …); assay: cell-based binding (flow cytometry)
[4] = biological target: T2, murine chimeric STEAP3-2 protein on AD293 cells (murine); assay: flow cytometry on AD293 muSTEAP3-2 cells, anti-human secondary
T2 construct: Used to test cross-reactivity to mouse STEAP2; also called AD293 muSTEAP3-2; AD293 STEAP3-2
Protocol: (§1) The cell-binding assays were designed to assess the binding affinities for parental 40A3-LO7 and its affinity matured derivatives to both human and murine STEAP2. The binding of the anti-STEAP2 antibodies were detected using a fluorescently labelled anti-human secondary antibody and standard methods of flow cytometry.
(§2) Briefly, a seven point 3-fold serial dilutions of 5× antibodies (mAbs) was prepared in sterile filtered FACS Buffer (5% Heat Inactivated Fetal Bovine Serum in PBS pH 7.4). Ten microliters of the antibody dilutions were added into designated wells in a 96-well U-bottom clear plate. The evaluated cells lines were harvested using cold 0.25% Trypsin-EDTA, resuspended in maintenance media, pelleted, and counted. Cell density was adjusted to 2×10⁶ cells/ml and forty microliters of cells were seeded on top of the antibody dilutions and incubated for 30 minutes. Cells were washed and a solution containing a 1:400 dilution of anti-human secondary antibody and a 1:1000 dilution of DAPI. After another 30 minute incubation, cells were washed, and then transferred to the FACS instrument for analysis.

[5] = biological target: T1, human STEAP2 (six-transmembrane …); assay: flow cytometry on LNCaP cells (endogenous human STEAP2), anti-human AF647 secondary
Protocol: as §1, §2

[6] = biological target: T1, human STEAP2 (six-transmembrane …); assay: flow cytometry on LNCaP cells (endogenous human STEAP2)
[7] = biological target: T2, murine chimeric STEAP3-2 protein on …; assay: flow cytometry on AD293 muSTEAP3-2 cells, fluorescent anti-human secondary antibody
Protocol: as §1, §2

| Binder | IC50 of cell viability, LNCaP cells (CellTiter-Glo) [1] | In Vitro Potency (22Rv1), IC50 of cell viability (CellTiter-Glo) [2] | In Vitro Potency (C4-2), IC50 of cell viability (CellTiter-Glo) [2] | In Vitro Potency (LNCaP), IC50 of cell viability (CellTiter-Glo) [2] | EC50 [4] | EC50 [5] | EC50 [6] | further results |
| --- | --- | --- | --- | --- | --- | --- | --- | --- |
| B1 | 0.3 nM | 4.53 nM | 2.23 nM | 0.22 nM |  |  |  |  |
| B2 |  |  |  |  | 0.97 nM | 1.67 nM |  | fold improvement in binding relative to 40A3-LO7 [3]: 26 fold |
| B3 | 2.78 nM | 32.1 nM | 16.5 nM | 1.7 nM |  |  |  |  |
| B4 |  |  |  |  |  |  | 1.72 nM |  |
| B5 |  |  |  |  |  |  | 43.3 nM | EC50 (read off the curve) [7]: ~5 µg/mL |
| B6 |  |  |  |  | 5.78 nM | 2.38 nM |  |  |

— patent publication US20250041435A1 (AstraZeneca / MedImmune, published 2025)
